Here are results for 26 molecules from patent publication US20250206837A1 (ELIXIRON IMMUNOTHERAPEUTICS HONG KONG, published 2025).

Substitutions are numbered along the chain they refer to. “And” between values parts separate entries of the source, which are not always exact repeats. Identical values can stand only once.

In experiment [1] the target is T1, full-length human CD36-Flag overexpressed on stable F293 cells (human, UniProt P16671 2-472). In words: cell-based or functional assay.
Experiment [2] has as its target T1, full-length human CD36-Flag …. Nature of the experiment: flow cytometry, F293 cells overexpressing human CD36. From the text:
(§1) After washing with FACS buffer (2% FBS in PBS), the cells were stained with anti-human IgG-Alexa Fluor 647 and analyzed by Attune NxT Flow Cytometer (Thermo Scientific).
A general note: A flow cytometer gives signals particle by particle.

Experiment [3] concerns the target T2, mouse CD36-His overexpressed on stable F293 cells (mouse, UniProt Q08857 1-472).
T2 construct: Gene segment from Sino Biological; also called F293/mCD36; mCD36; not shown: His tag
In words: flow cytometry, F293 cells overexpressing mouse CD36.
Excerpt: as §1

In experiment [4] the target is T3, rhesus CD36-His overexpressed on stable F293 cells (rhesus, UniProt P16671 2-472 (human entry)).
T3 construct: Gene segment from Sino Biological; also called F293/rhesusCD36; not shown: His tag
T3 sequence (P16671 other isoform, or with tags, fused parts or gaps): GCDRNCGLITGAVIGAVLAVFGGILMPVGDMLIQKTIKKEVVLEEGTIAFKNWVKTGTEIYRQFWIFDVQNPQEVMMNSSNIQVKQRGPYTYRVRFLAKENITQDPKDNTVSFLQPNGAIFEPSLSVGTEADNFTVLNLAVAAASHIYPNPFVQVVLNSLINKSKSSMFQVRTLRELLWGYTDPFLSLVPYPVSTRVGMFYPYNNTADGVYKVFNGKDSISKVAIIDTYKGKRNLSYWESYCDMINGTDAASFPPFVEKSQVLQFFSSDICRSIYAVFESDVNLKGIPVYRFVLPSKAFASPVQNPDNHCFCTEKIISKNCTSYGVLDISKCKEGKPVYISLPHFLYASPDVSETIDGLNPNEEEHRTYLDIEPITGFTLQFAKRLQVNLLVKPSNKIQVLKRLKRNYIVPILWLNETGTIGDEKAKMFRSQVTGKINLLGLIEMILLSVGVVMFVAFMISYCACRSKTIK
In words: flow cytometry, F293 cells overexpressing rhesus CD36.
Excerpt: as §1

Experiment [5] has as its target T4, Recombinant His-tagged human CD36.ECD protein (Sino Biological) (human, UniProt P16671 30-439).
T4 construct: Bought protein; also called hCD36.ECD; hCD36; not shown: His tag
In words: ELISA, coated human CD36.ECD (FIG. 2B). On the procedure: (§2) ELISA materials and methods: Recombinant His-tagged human CD36.ECD protein or His-tagged mouse CD36.ECD protein (both from Sino Biological) was immobilized on 96 well microtiter plate at a concentration of 1 μg/mL in Coating Solution (SeraCare) overnight at 4° C. The wells were washed with wash solution (0.05% Tween20 in PBS) and blocked with 1% BSA in PBS. Serial dilutions of anti-CD36 antibodies were added to wells. After incubation at 37° C. for 1 h, the wells were washed with wash solution. Peroxidase-conjugated Goat anti-human kappa Light chain antibody (Sigma) was applied to each well at 37° C. for 1 h incubation. After washing, the wells were developed with TMB substrate for 5-10 min at room temperature and then stopped with 1 N HCl. Thereafter absorbance was measured at 450 nm and 650 nm. EC50 values were calculated through GraphPad Prism7.
(§3) The competitor anti-CD36 antibody ONA, which is derived from clone “ONA-0-v1” as disclosed in WO2021176424A1 in hIgG4-S228P-FALA format.
A general note: In an ELISA, binding on a coated surface is turned into a signal by an enzyme label.

Experiment [6] concerns the target T4, Recombinant His-tagged human CD36.ECD …. In words: ELISA, coated human CD36.ECD (FIG. 2A). On the procedure:
as §2, §3

Experiment [7] concerns the target T2, mouse CD36-His overexpressed on stable …. Nature of the experiment: cell-based or functional assay.
The target in experiment [8] is T4, Recombinant His-tagged human CD36.ECD …. Nature of the experiment: ELISA, coated human CD36.ECD (FIG. 2C). Here is the method:
as §2, §3

Experiment [9] has the same target. Nature of the experiment: ELISA, coated human CD36.ECD (FIG. 2D). On the procedure: as §2, §3
Experiment [10] shares this target. In words: ELISA, coated human CD36.ECD (FIG. 2F). Here is the method:
as §2, §3

T4 sequence (P16671 30-439 limits assumed): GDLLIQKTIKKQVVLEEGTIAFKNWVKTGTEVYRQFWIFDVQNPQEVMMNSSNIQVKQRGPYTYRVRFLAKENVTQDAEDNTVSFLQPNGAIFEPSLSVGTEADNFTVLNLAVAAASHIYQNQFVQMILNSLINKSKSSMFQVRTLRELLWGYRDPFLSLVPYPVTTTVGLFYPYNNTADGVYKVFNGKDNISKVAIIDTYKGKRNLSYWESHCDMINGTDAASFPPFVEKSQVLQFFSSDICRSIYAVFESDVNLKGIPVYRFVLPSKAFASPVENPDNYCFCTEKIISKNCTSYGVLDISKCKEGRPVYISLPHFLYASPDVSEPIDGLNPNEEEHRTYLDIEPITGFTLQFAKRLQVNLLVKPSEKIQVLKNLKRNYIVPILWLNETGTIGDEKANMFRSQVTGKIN
T1 sequence (P16671 2-472): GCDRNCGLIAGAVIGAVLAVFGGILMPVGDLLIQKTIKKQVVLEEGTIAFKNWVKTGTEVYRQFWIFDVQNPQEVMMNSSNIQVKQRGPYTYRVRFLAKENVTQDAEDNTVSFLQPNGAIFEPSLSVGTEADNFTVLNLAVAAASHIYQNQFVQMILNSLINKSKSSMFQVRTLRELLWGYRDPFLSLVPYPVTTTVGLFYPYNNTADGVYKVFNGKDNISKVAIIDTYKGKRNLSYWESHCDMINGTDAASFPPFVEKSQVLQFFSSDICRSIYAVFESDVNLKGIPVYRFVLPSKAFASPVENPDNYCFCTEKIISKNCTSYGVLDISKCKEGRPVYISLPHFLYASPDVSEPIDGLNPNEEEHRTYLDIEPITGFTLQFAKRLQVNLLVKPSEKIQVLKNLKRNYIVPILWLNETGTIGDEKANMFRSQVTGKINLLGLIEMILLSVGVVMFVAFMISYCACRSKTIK
T2 sequence (Q08857 whole entry): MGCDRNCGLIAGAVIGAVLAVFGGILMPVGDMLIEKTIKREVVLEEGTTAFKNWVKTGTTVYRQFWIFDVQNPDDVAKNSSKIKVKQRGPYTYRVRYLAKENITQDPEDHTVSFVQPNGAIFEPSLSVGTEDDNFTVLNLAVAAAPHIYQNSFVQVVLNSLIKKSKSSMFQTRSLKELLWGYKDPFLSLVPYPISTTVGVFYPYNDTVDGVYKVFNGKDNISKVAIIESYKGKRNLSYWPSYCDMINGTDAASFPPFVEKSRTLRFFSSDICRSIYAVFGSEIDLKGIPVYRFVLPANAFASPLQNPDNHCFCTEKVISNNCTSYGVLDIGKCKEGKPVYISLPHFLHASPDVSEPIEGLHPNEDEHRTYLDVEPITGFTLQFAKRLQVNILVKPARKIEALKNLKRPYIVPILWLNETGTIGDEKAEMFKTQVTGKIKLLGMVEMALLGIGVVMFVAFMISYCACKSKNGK

B1: 117 (antibody, V domains shown)
VH: EVQLVESGGGLVQPGGSLRLSCAASGFTISSFGIHWVRQAPGKGLEWVAWIAPYGGYTYYADSVKGRFTISADTSKNTAYLQMNSLRAEDTAVYYCARSFFGYFDYWGQGTLVTVSS
VL: DIQMTQSPSSLSASVGDRVTITCRASQDVSNWVAWYQQKPGKAPKLLISYATSLYSGVPSRFSGSGSGTDFTLTISSLQPEDFATYYCQQHSNAPLTFGQGTKVEIKR
notes: Full-length IgG, human kappa
Broadly, the EC50 is the concentration that produces a half-maximal response. Consider B1, for which, in [1], the “oxLDL uptake IC50 (nM), F293/hCD36” value was 0.702 nM. Further, the EC50 in [2] was 0.18 µg/mL and 0.123 µg/mL; in experiment [3] it was 0.46 µg/mL and 0.361 µg/mL; in [4], 0.886 µg/mL and 0.582 µg/mL.

B2: 117_30D (antibody, V domains shown)
VH: B1 VH with S30D
VL: B1 VL
notes: full-length IgG, human kappa
For B2, the 50% effective concentration (EC50) in experiment [5] came out at 0.141 nM.

B3: 117_57R (antibody, V domains shown)
VH: B1 VH with Y57R
VL: B1 VL
notes: full-length IgG, human kappa
As for B3, the concentration giving a half-maximal response (EC50) in experiment [6] is 0.0695 nM.

B4: 117_30DA (antibody, V domains shown)
VH: B1 VH with S30D, S31A
VL: B1 VL
notes: full-length IgG, human kappa
On to B4, for which, in experiment [1], the “oxLDL uptake IC50 (nM), F293/hCD36” value came to 0.691 nM. In experiment [7], the “oxLDL uptake IC50 (nM), F293/mCD36” value was determined as 1.07 nM. For the same molecule, the 50% effective concentration (EC50) in [8] was 0.137 nM; in experiment [9] it was 0.0803 nM; in [2], 0.157 µg/mL; in experiment [3] it was 0.488 µg/mL; in experiment [4] it was 1.04 µg/mL.

B5: 117_30DT (antibody, V domains shown)
VH: B1 VH with S30D, S31T
VL: B1 VL
notes: full-length IgG, human kappa
Consider B5, for which the EC50 in experiment [8] amounted to 0.103 nM.

B6: 117_28D (antibody, V domains shown)
VH: B1 VH with T28D
VL: B1 VL
notes: full-length IgG, human kappa
With B6, in [5], the concentration for a half-maximal effect (EC50) worked out at 0.0735 nM.

B7: 117_101A (antibody, V domains shown)
VH: B1 VH with F101A
VL: B1 VL
notes: full-length IgG, human kappa
For the molecule B7, the concentration for a half-maximal effect (EC50) in experiment [9] was 0.0751 nM.

B8: 117_57A (antibody, V domains shown)
VH: B1 VH with Y57A
VL: B1 VL
notes: full-length IgG, human kappa
Turning to B8, the concentration giving a half-maximal response (EC50) in experiment [6] turned out to be 1.52 nM.

B9: 117_31A (antibody, V domains shown)
VH: B1 VH with S31A
VL: B1 VL
notes: full-length IgG, human kappa
In the case of B9, the EC50 in experiment [5] was 0.0991 nM.

B10: 117_32D (antibody, V domains shown)
VH: B1 VH with F32D
VL: B1 VL
notes: full-length IgG, human kappa
Turning to B10, in experiment [5], the concentration for a half-maximal effect (EC50) was 0.0276 nM.

B11: 117_57D (antibody, V domains shown)
VH: B1 VH with Y57D
VL: B1 VL
notes: full-length IgG, human kappa
Regarding B11, the “oxLDL uptake IC50 (nM), F293/hCD36” value in experiment [1] amounted to 0.349 nM. In addition, the “oxLDL uptake IC50 (nM), F293/mCD36” value in experiment [7] turned out to be 0.783 nM. The EC50 in experiment [6] came out at 0.0529 nM; in [2] it was 0.111 µg/mL; in experiment [3] it was 0.309 µg/mL; in [4], 0.397 µg/mL.

B12: 117_30FT (antibody, V domains shown)
VH: B1 VH with S30F, S31T
VL: B1 VL
notes: full-length IgG, human kappa
Turning to B12, in experiment [8], the EC50 was determined as 0.254 nM.

B13: 117_DA57D (antibody, V domains shown)
VH: B1 VH with S30D, S31A, Y57D
VL: B1 VL
notes: full-length IgG, human kappa
For B13, the “oxLDL uptake IC50 (nM), F293/hCD36” value in experiment [1] was 0.332 nM. Further, the EC50 amounted to 0.049 nM in experiment [9], 0.089 µg/mL in experiment [2], 0.271 µg/mL in experiment [3] and 0.416 µg/mL in experiment [4].

B14: 117_30DE (antibody, V domains shown)
VH: B1 VH with S30D, Y57E
VL: B1 VL
notes: full-length IgG, human kappa
In the case of B14, the “oxLDL uptake IC50 (nM), F293/hCD36” value in [1] turned out to be 0.299 nM. The concentration for a half-maximal effect (EC50) came to 0.107 µg/mL in [2], 0.342 µg/mL in [3] and 0.403 µg/mL in experiment [4].

B15: 117_30AA (antibody, V domains shown)
VH: B1 VH with S30A, S31A
VL: B1 VL
notes: full-length IgG, human kappa
Consider B15, for which, in [8], the concentration for a half-maximal effect (EC50) is 0.145 nM.

B16: 117_58E (antibody, V domains shown)
VH: B1 VH with T58E
VL: B1 VL
notes: full-length IgG, human kappa
On to B16, for which the EC50 in [6] was 0.422 nM.

B17: 117_30AT (antibody, V domains shown)
VH: B1 VH with S30A, S31T
VL: B1 VL
notes: full-length IgG, human kappa
Regarding B17, the EC50 in [8] was 0.247 nM.

B18: 117_30A (antibody, V domains shown)
VH: B1 VH with S30A
VL: B1 VL
notes: full-length IgG, human kappa
As to B18, the concentration giving a half-maximal response (EC50) in [5] came out at 0.0964 nM.

B19: 117_30FA (antibody, V domains shown)
VH: B1 VH with S30F, S31A
VL: B1 VL
notes: full-length IgG, human kappa
In the case of B19, in experiment [8], the EC50 was 0.202 nM.

B20: 117_57EE (antibody, V domains shown)
VH: B1 VH with Y57E, T58E
VL: B1 VL
notes: full-length IgG, human kappa
B20: in [1], the “oxLDL uptake IC50 (nM), F293/hCD36” value was 0.348 nM. The EC50 turned out to be 0.093 µg/mL in experiment [2], 0.319 µg/mL in [3] and 0.407 µg/mL in [4].

B21: 117_DA57E (antibody, V domains shown)
VH: B1 VH with S30D, S31A, Y57E
VL: B1 VL
notes: full-length IgG, human kappa
Turning to B21, in experiment [1], the “oxLDL uptake IC50 (nM), F293/hCD36” value came out at 0.306 nM. Besides, the concentration giving a half-maximal response (EC50) in experiment [9] was 0.0539 nM; in [10], 0.19 nM; in [2] it was 0.109 µg/mL and 0.0968 µg/mL; in experiment [3], 0.425 µg/mL and 0.375 µg/mL; in experiment [4], 0.563 µg/mL and 0.671 µg/mL.

B22: 117_28A (antibody, V domains shown)
VH: B1 VH with T28A
VL: B1 VL
notes: full-length IgG, human kappa
For the molecule B22, in experiment [5], the EC50 stood at 0.129 nM.

B23: 117_AA57E (antibody, V domains shown)
VH: B1 VH with S30A, S31A, Y57E
VL: B1 VL
notes: full-length IgG, human kappa
As to B23, in experiment [10], the EC50 was 0.251 nM.

B24: 117_101K (antibody, V domains shown)
VH: B1 VH with F101K
VL: B1 VL
notes: full-length IgG, human kappa
Turning to B24, the EC50 in experiment [9] worked out at 1.46 nM.

B25: 117_31D (antibody, V domains shown)
VH: B1 VH with S31D
VL: B1 VL
notes: full-length IgG, human kappa
Regarding B25, the EC50 in experiment [5] was determined as 0.0375 nM.

B26: 117_AA57D (antibody, V domains shown)
VH: B1 VH with S30A, S31A, Y57D
VL: B1 VL
notes: full-length IgG, human kappa
Regarding B26, in [10], the half-maximal effective concentration (EC50) is 0.192 nM.
